Test [1] has as its target soluble recombinant integrin αIIbβ3, P08514;P05106. Kind of test: ELISA-type binding assay (OD450). To be noted: chain shown with the change; CD62P 50 µg/ml; 1 mM Mn2+; parent: est. 0.54; read off a plot.
For test [2], the target named is T1, soluble recombinant integrin αvβ3, P06756;P05106.
T1 chain 1: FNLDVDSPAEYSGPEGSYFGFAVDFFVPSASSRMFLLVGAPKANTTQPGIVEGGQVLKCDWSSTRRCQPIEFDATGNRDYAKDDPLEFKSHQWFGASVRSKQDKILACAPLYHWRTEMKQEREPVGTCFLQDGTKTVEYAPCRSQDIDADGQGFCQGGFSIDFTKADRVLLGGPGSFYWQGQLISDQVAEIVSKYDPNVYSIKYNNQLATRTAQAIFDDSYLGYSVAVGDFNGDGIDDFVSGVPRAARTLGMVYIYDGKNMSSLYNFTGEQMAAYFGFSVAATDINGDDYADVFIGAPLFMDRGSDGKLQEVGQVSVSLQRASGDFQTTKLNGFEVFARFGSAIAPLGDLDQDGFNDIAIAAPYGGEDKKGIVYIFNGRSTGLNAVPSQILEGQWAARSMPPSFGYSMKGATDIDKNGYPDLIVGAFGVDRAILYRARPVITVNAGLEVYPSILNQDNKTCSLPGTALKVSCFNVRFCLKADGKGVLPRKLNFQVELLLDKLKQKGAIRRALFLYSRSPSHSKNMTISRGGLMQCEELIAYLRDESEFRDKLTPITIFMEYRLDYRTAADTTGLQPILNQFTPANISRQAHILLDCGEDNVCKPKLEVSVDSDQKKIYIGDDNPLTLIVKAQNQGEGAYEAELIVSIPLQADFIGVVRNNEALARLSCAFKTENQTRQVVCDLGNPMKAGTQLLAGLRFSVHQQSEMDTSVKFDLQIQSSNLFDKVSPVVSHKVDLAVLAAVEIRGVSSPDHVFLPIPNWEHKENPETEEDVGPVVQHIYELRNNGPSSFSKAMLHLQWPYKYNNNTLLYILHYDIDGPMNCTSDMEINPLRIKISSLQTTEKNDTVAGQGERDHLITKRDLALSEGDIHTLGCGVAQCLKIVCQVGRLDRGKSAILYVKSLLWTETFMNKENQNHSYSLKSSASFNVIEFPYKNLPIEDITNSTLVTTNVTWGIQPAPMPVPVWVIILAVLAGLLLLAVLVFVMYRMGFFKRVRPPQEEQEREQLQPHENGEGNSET
T1 chain 2: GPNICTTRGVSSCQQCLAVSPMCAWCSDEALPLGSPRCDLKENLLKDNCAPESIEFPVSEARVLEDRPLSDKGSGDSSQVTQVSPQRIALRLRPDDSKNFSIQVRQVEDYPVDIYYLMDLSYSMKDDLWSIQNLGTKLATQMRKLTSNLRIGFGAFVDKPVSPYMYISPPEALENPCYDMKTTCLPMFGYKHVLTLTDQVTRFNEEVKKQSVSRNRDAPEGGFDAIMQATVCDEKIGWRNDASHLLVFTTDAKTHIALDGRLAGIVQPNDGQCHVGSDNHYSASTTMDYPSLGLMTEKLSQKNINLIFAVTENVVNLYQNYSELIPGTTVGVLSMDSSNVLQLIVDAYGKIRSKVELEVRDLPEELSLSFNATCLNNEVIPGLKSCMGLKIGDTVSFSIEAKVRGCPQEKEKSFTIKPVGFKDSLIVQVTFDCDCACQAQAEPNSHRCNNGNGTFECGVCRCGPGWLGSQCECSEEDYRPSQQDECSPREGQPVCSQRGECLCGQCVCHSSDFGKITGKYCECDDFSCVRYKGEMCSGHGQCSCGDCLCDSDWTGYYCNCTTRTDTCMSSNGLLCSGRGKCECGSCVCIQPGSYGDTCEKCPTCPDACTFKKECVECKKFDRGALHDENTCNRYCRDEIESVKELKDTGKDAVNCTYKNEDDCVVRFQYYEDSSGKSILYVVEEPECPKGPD
Briefly: ELISA-type binding assay (OD450). The settings on record: chain shown with the change; CD62P 50 µg/ml; 1 mM Mn2+; parent: est. 0.55; read off a plot.

B1: CD62P (P-selectin) lectin domain (residues 1–117), wild type R54E; K55E (protein)
chain: WTYHYSTKAYSWNISRKYCQNRYTDLVAIQNKNEIDYLNKVLPYYSSYYWIGIEENNKTWTWVGTKKALTNEAENWADNEPNNKRNNEDCVEIYIKSPSAPGKWNDEHCLKKKHALC
As to B1, the response in test [1] came to 1.3 OD450; in test [2], 1.2 OD450.

B2: CD62P (P-selectin) lectin domain (residues 1–117), wild type K84E; R85E (protein)
chain: WTYHYSTKAYSWNISRKYCQNRYTDLVAIQNKNEIDYLNKVLPYYSSYYWIGIRKNNKTWTWVGTKKALTNEAENWADNEPNNEENNEDCVEIYIKSPSAPGKWNDEHCLKKKHALC
Take B2: the response worked out at 0.19 OD450 in test [1] and 0.24 OD450 in test [2].

B3: CD62P (P-selectin) lectin domain (residues 1–117), wild type E88D (protein)
chain: WTYHYSTKAYSWNISRKYCQNRYTDLVAIQNKNEIDYLNKVLPYYSSYYWIGIRKNNKTWTWVGTKKALTNEAENWADNEPNNKRNNDDCVEIYIKSPSAPGKWNDEHCLKKKHALC
B3: the response in test [1] was found to be 0.76 OD450; in test [2] it was 0.8 OD450.

B4: CD62P (P-selectin) lectin domain (residues 1–117), wild type K66E; K67E (protein)
chain: WTYHYSTKAYSWNISRKYCQNRYTDLVAIQNKNEIDYLNKVLPYYSSYYWIGIRKNNKTWTWVGTEEALTNEAENWADNEPNNKRNNEDCVEIYIKSPSAPGKWNDEHCLKKKHALC
Regarding B4, the response was 0.3 OD450 in test [1] and 0.35 OD450 in test [2].

B5: CD62P (P-selectin) lectin domain (residues 1–117), wild type K58E (protein)
chain: WTYHYSTKAYSWNISRKYCQNRYTDLVAIQNKNEIDYLNKVLPYYSSYYWIGIRKNNETWTWVGTKKALTNEAENWADNEPNNKRNNEDCVEIYIKSPSAPGKWNDEHCLKKKHALC
B5: the response in test [1] was 0.27 OD450; in test [2], 0.31 OD450.

B6: CD62P (P-selectin) lectin domain (residues 1–117), wild type R16E; K17E (protein)
chain: WTYHYSTKAYSWNISEEYCQNRYTDLVAIQNKNEIDYLNKVLPYYSSYYWIGIRKNNKTWTWVGTKKALTNEAENWADNEPNNKRNNEDCVEIYIKSPSAPGKWNDEHCLKKKHALC
On to B6, for which the response in test [1] turned out to be 0.12 OD450; in test [2], 0.14 OD450.

These data come from publication PMC10130748.
